According to paper PMC11672753:

Chain of S15-FX (human) (heavy, as listed by the source, chain 1 of 2): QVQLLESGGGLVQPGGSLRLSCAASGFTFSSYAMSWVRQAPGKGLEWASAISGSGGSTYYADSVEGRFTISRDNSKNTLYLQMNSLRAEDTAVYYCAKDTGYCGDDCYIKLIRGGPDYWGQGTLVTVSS
Chain of S15-FX (human) (light, as listed by the source, chain 2 of 2): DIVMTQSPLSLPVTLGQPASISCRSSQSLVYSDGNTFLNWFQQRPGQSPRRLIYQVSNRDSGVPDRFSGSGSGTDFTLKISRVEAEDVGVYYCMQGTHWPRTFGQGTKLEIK
Chain of S15-HDEL (human) (heavy, as listed by the source, chain 1 of 2): as the sequence (heavy, as listed by the source, chain 1 of 2) above
Chain of S15-HDEL (human) (light, as listed by the source, chain 2 of 2): as the sequence (light, as listed by the source, chain 2 of 2) above

Q: Which results are given for “FcγRIIIa-dimer, biotinylated (from UniProt P08637 17-254) (receptor)”?
A: NK cell activation (CD107 and IFNγ expression) by antigen-bound antibody, against the WT plant antibody (S15-FX (human)): 3 fold; NK cell activation (CD107 and IFNγ expression) by antigen-bound antibody, against the WT plant antibody (S15-HDEL (human)): 3 fold
